{
  "source": "patent US20240285753A1",
  "about": "(DUKE UNIVERSITY, published 2024)",
  "molecular_target": "MERS spike (2P) (MERS-CoV, UniProt K9N5Q8 18-1291)",
  "assay": "ELISA, coated spike, mAb titrated",
  "data": [
    {"binder": "DH1509 (antibody, V domains shown) VH: QVQLVESGGGVVQPGRSLRLSCAASGFTLSSHGIHWVRQAPGKGLEWVAVTSFDGRNKKFGDSVKGRFTISRDNSKNTVYLQMNSLRTEDTAVYYCAKDWGDDYSRWYFDLWGRGTLVTVSS VL: DIQMTQSPSSLSASVGDRVTITCQASHDITKYLNWYQQKPGRAPKLLIYDASNLKTGVPSRFSGSGSGTDFTFTITSLQPEDLATYYCQQSDVLPITFGQGTRLEIK", "values": [
      {"measurement": "EC50 (read off the curve)", "value": "~0.2", "unit": "µg/mL"}
    ]}
  ]
}
